Source: publication PMC2966416

Columns and labels:
[1] = biological target: NCenH3^CenpA-lacI (human)
[2] = biological target: NCenH3^Cse4-lacI (Saccharomyces cerevisiae)

## BubR1 (natural protein)
[1]
  silencing of the white-reporter (eye pigmentation) in S9.2 flies on tethering of the lacI fusion: share of lines with significant silencing: 50 % of lines
[2]
  silencing of the white-reporter (eye pigmentation) in S9.2 flies on tethering of the lacI fusion: share of lines with strong silencing: 75 % of lines
